Measurements taken from the nanobody polyreactivity screen of Harvey et al. (2022).

Assay: yeast display, Sf9 membrane polyspecificity reagent, FACS + sequencing; frameworks hold sequencing errors
Outline: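 Polyreactivity labels are assigned by the sorting gate from which each nanobody was recovered. The gates were low and high (top ~1%), set on anti-HA fluorescence for expression and streptavidin fluorescence for reagent binding. Before sorting, galactose-induced (36–48 hours) yeast display cells were stained for 1 hour at 4 °C with 10% biotinylated, detergent-solubilized Sf9 membrane reagent.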

Sequence	polyreactivity (PSR sort gate)
QVQLEESGGGLVQAGGSLRLSCAASGSTFRYYAMGWYRQAHGKERELVAGISSSGGSTYYADSVKGRFTISRDNAKNTVYLQMNSLKPEDTAVYYCNAARGSSRSWAVFADYDYWGQGTQVTVSS	high polyreactivity
QVQLQESGGGLVQAGGSLRLSCAASGNIFEADIMGWYHQAQGKERELVASITDGGSTNYADSVKGRFTINRDNAKNNVYLQMNSLKPEDTAVYYCAAIAYPDIPTYFDYDSDYFYWGQGTQVTVSS	high polyreactivity
QVQLVESAGGLVQAGGSLRLSCAASGLTQASYAMGWYRQAPGKERELVAAISRRSGRTYYADSVKGRFTISRDNAKNTVYLQMNSLKPVDTAVYYCNRGYTAQVYTEFDYWGQGTQVTVSS	low polyreactivity
QVQLVESGGALDQAGGSLRVSCAASGSIFPIYTMGWYRQAPGKERELVAGIRYRGGNTYYADSVKGRFTISRDNAKNTVYLQMNSLNPEDTAVYYCAARAYYRYLYKLNYWGQGTQVTVSS	high polyreactivity
QVQLVESGGGLVQAGGSLRLRCAASGRNFGDNRMGWYRQAPGKERELVTYAYSVKGRFTISRDNAKNTVYLQMNSLKPEDTSVYYCNTDPQRFSGLDENYWGQGTQVTVSS	low polyreactivity
QVQLVESGGGLVQAGGSLRLSCAASGSIFTPNAMGWYRQAPGKERELVAAISSSSDRTYYADSVKGRFTISRDNAKNTVYLQMNSLKPEDTAVYYCAAYAQKRYYWGQGTQVTVSS	high polyreactivity
QVQLVESGGGLVQAGGSLRLSCAASGYTFYANAMGWYRQAPGKEREFVASITWSGGSTYYPDSVKGRFTISRDNAKNTVYLQMNSLKPEDTAVYYCAAESWFKYDYWGQGTQETVSS	low polyreactivity
QVQLVESGGGLVQAGGSLRLSCAASGRISAYNAMGWYRQAPGKERELVAGISTRTGSTYYADSVKGRFTISRDNAKNTVYLQMNSLKPEDTAVYYGAAYFWGVYFFGMDYWGQGTQVTVSS	low polyreactivity
QVQLVESWGGLVQAAASLRLICDASGRTIRWSAMGWYRPAPGKERELVATITTSGTPSYADSVKGRFTISRDNAKNTVYLQMNSLTPEDTAVYYCAADTYPWGGSSSYDWGQGTQVTVSS	high polyreactivity
QVQLVESGGGLVQAGGSLRLSCAASGITFGPNAMGWYRQAPGKERELVAAISWRGGSTYYADSVKGRFTISRDNAKNTVYLQMNSLKPEDTAVYYCAKVQIPASYIRYDYWGQGTQVTLSS	low polyreactivity
QDQLVESGGGLVQAGGSLRLSCAASGIIFPQYTMGWYRQAPGKERELVAVITSGGSTYYADSVKGRFTISRDNAKNTVYLQMNSLKTEDTAVYYCAADAFYKFDYWGQGTQVTVSS	high polyreactivity
QVQLVESGGGLVQAGGSLRLSCAASGCTFQTYAMGWYRQAPGKERELVAGITAGGSTNYADSVKGRFSISRDNAKNTVYLQMNSLKPEDTAVYYCAVRQISQTSDHRLQYDYWGQGTQVNVSS	low polyreactivity
QVQLVESGGGLVQAGGSLRLSCAASGRIVTSNAMGWYRQAPGKERELVAVISRRGGSTYYADYVKGRFTITRDNAKNTVYLQMNSVKPEDTAVYYCARRPYSYTRYEYWGQGTQVTVSS	low polyreactivity
QVQLVESGGGLVQAGGSLRLSCAATGFTFGSNVMGWYRQAPGKERELVATIRRGGSTNYADSVKGRFTISRDNAKNTVYLQLNSLKPEDTAVYYCATRYREWGQGTQVTVSS	high polyreactivity
QVQLVESGGGLVQAGGSLRLSCAASGSIFYHYAMGWYRQAPGKERELVAAISQSGGGTYYADSVKGRFTISRDNAKNTVYLQMNSLKPEDTAVYYCIRLSKQKQEFDYWGQGTQVTVSW	high polyreactivity
QVQLVESGGGLVQAGGSLRLSCAASGYIFGVYAMGWYRQAPGKERELVAAISYGVGSTSYADSVKGRFTISRDNAKNTVYLQMNSLKPEDTAVYYCAADVFFYVYEAYLLYYWGQGTQVTVSS	low polyreactivity
QVQLVESGGGLVQAGGSLRLSCAASGITFDYYDMGWYRQAPGKERELVATITSDGSTYYADSVKGRFTISRDNAKNTVYLQMNSLKPEDTAVYYCNARRRTVPYRYDYWGQGTQVTVSS	high polyreactivity
